B1: Rtt102 (natural protein)
chain: MDPQTLITKANKVSYYGNPTSKESWRYDWYQPSKVSSNVQQPQQQLGDMENNLEKYPFRYKTWLRNQEDEKNLQRESCEDILDLKEFDRRILKKSLMTSHTKGDTSKATGAPSANQGDEALSVDDIRGAVGNSEAIPGLSAGVNNDNTKESKDVKMN
B2: Swi1 (natural protein)
chain: MDFFNLNNNNNNNNTTTTTTTTNNNNTNNNNTNNNNNPANNTNNNNSTGHSSNTNNNTNNNNTNTGASGVDDFQNFFDPKPFDQNLDSNNNNSNSNNNDNNNSNTVASSTNFTSPTAVVNNAAPANVTGGKAANFIQNQSPQFNSPYDSNNSNTNLNSLSPQAILAKNSIIDSSNLPLQAQQQLYGGNNNNNSTGIANDNVITPHFITNVQSISQNSSSSTPNTNSNSTPNANQQFLPFNNSASNNGNLTSNQLISNYAASNSMDRSSSASNEFVPNTSDNNNNSNNHNMRNNSNNKTSNNNNVTAVPAATPANTNNSTSNANTVFSERAAMFAALQQKQQQRFQALQQQQQQQQNQQQQNQQPQQQQQQQQNPKFLQSQRQQQQRSILQSLNPALQEKISTELNNKQYELFMKSLIENCKKRNMPLQSIPEIGNRKINLFYLYMLVQKFGGADQVTRTQQWSMVAQRLQISDYQQLESIYFRILLPYERHMISQEGIKETQAKRIFLQQFLQELLKKVQQQQQAAALANANNNINSASSAPTPAAPGASVPATAAPGTEAGIVPVSANTPKSLNSNININVNNNNIGQQQVKKPRKQRVKKKTKKELELERKEREDFQKRQQKLLEDQQRQQKLLLETKLRQQYEIELKKLPKVYKRSIVRNYKPLINRLKHYNGYDINYISKIGEKIDSNKPIFLFAPELGAINLHALSMSLQSKNLGEINTALNTLLVTSADSNLKISLVKYPELLDSLAILGMNLLSNLSQNVVPYHRNTSDYYYEDAGSNQYYVTQHDKMVDKIFEKVNNNATLTPNDSNDEKVTILVDSLTGNQLPTPTPTEMEPDLDTECFISMQSTSPAVKQWDLLPEPIRFLPNQFPLKIHRTPYLTSLKKIKDEIDDPFTKINTRGAEDPKVLINDQLSTISMILRNISFSDNNSRIMSRNFYLKRFISDLLWLVLIHPENFTCNRKILNFKKDLVIVLSNISHLLEIASSIDCLLILILVISFGQPKLNPMASSSSFGSESLTFNEFQLQWGKYQTFGVDILAKLFSLEKPNLNYFKSILLNKNTGNNLYDRNSNNNHKDKKLLRRLLNLYNDNNKNNNNRHNLLNDVVSFLFSAIPLQQVLSQSADPSLLIDQFSPVISQSLTSILVIVQKILPLSNEVFEISENNSDSNSNNNGNKDSSFNFNKNLPFVWLSSEENIGSGLLKLSEIILNINNSTSKNTLLQQQNYSKVLLPSINISCVQLIKCLVEKSICFENCLNNDPEILKKIASIPNLFPTDLEIFQLFTNPSVDIQIINQYQLLYNLKNDILTNLE
B3: Arp9 (natural protein)
chain: MAPFRQDSILIIYPRSQTTLVQFGLNEETFTVPELEIPTQIYRTTRQDGSYTYHSTNKDNKAELIKPIQNGEIIDISAFTQFLRLIFVSILSDRANKNQDAFEAELSNIPLLLITHHSWSQSDLEIITQYVFESLEINNLIQLPASLAATYSMISLQNCCIIDVGTHHTDIIPIVDYAQLDHLVSSIPMGGQSINDSLKKLLPQWDDDQIESLKKSPIFEVLSDDAKKLSSFDFGNENEDEDEGTLNVAEIITSGRDTREVLEERERGQKVKNVKNSDLEFNTFWDEKGNEIKVGKQRFQGCNNLIKNISNRVGLTLDNIDDINKAKAVWENIIIVGGTTSISGFKEALLGQLLKDHLIIEPEEEKSKREEEAKSVLPAATKKKSKFMTNSTAFVPTIEYVQCPTVIKLAKYPDYFPEWKKSGYSEIIFLGAQIVSKQIFTHPKDTFYITREKYNMKGPAALWDVQF
B4: Snf5 (natural protein)
chain: MNNQPQGTNSVPNSIGNIFSNIGTPSFNMAQIPQQLYQSLTPQQLQMIQQRHQQLLRSRLQQQQQQQQQTSPPPQTHQSPPPPPQQSQPIANQSATSTPPPPPAPHNLHPQIGQVPLAPAPINLPPQIAQLPLATQQQVLNKLRQQAIAKNNPQVVNAITVAQQQVQRQIEQQKGQQTAQTQLEQQRQLLVQQQQQQQLRNQIQRQQQQQFRHHVQIQQQQQKQQQQQQQHQQQQQQQQQQQQQQQQQQQQQQQQQQQQQQQQQQQQQGQIPQSQQVPQVRSMSGQPPTNVQPTIGQLPQLPKLNLPKYQTIQYDPPETKLPYPTYWSDKKADTDTLLYEQIIQRDKINKYSLIRETNGYDPFSIYGFSNKEYISRLWHTLKYYQDLKNTRMKSITSTSQKIPSASIWGNGYSGYGNGITNTTTRVIPQVEVGNRKHYLEDKLKVYKQAMNETSEQLVPIRLEFDQDRDRFFLRDTLLWNKNDKLIKIEDFVDDMLRDYRFEDATREQHIDTICQSIQEQIQEFQGNPYIELNQDRLGGDDLRIRIKLDIVVGQNQLIDQFEWDISNSDNCPEEFAESMCQELELPGEFVTAIAHSIREQVHMYHKSLALLGYNFDGSAIEDDDIRSRMLPTITLDDVYRPAAESKIFTPNLLQISAAELERLDKDKDRDTRRKRRQGRSNRRGMLALSGTSASNTSMNGVHNTVAAGNASSLPPGEILLPDIADIPRTFRTPVPSTLMPGGVDVGPSVESYELRNTTTYKSRPDRPKPVSPPCYIIDHIPGHSLLLSIKLPGKVNTKEEFAAAPNDTSSGTNAMLPSPESLKTKLNSNIRAGVTIPSIPNPIANHTVTNSPNPTLQPVIPGGAASKSVPTPSLPIAPPVAPHDSEATLLTNSNNGSSNNNTQNT
B5: Arp7 (natural protein)
chain: MTLNRKCVVIHNGSHRTVAGFSNVELPQCIIPSSYIKRTDEGGEAEFIFGTYNMIDAAAEKRNGDEVYTLVDSQGLPYNWDALEMQWRYLYDTQLKVSPEELPLVITMPATNGKPDMAILERYYELAFDKLNVPVFQIVIEPLAIALSMGKSSAFVIDIGASGCNVTPIIDGIVVKNAVVRSKFGGDFLDFQVHERLAPLIKEENDMENMADEQKRSTDVWYEASTWIQQFKSTMLQVSEKDLFELERYYKEQADIYAKQQEQLKQMDQQLQYTALTGSPNNPLVQKKNFLFKPLNKTLTLDLKECYQFAEYLFKPQLISDKFSPEDGLGPLMAKSVKKAGASINSMKANTSTNPNGLGTSHINTNVGDNNSTASSSNISPEQVYSLLLTNVIITGSTSLIEGMEQRIIKELSIRFPQYKLTTFANQVMMDRKIQGWLGALTMANLPSWSLGKWYSKEDYETLKRDRKQSQATNATN

Experiments:
[1] = target: Snf2 (S. cerevisiae, UniProt P22082 1-1703); test: cryo-EM structure
Snf2, sequence (P22082 whole entry): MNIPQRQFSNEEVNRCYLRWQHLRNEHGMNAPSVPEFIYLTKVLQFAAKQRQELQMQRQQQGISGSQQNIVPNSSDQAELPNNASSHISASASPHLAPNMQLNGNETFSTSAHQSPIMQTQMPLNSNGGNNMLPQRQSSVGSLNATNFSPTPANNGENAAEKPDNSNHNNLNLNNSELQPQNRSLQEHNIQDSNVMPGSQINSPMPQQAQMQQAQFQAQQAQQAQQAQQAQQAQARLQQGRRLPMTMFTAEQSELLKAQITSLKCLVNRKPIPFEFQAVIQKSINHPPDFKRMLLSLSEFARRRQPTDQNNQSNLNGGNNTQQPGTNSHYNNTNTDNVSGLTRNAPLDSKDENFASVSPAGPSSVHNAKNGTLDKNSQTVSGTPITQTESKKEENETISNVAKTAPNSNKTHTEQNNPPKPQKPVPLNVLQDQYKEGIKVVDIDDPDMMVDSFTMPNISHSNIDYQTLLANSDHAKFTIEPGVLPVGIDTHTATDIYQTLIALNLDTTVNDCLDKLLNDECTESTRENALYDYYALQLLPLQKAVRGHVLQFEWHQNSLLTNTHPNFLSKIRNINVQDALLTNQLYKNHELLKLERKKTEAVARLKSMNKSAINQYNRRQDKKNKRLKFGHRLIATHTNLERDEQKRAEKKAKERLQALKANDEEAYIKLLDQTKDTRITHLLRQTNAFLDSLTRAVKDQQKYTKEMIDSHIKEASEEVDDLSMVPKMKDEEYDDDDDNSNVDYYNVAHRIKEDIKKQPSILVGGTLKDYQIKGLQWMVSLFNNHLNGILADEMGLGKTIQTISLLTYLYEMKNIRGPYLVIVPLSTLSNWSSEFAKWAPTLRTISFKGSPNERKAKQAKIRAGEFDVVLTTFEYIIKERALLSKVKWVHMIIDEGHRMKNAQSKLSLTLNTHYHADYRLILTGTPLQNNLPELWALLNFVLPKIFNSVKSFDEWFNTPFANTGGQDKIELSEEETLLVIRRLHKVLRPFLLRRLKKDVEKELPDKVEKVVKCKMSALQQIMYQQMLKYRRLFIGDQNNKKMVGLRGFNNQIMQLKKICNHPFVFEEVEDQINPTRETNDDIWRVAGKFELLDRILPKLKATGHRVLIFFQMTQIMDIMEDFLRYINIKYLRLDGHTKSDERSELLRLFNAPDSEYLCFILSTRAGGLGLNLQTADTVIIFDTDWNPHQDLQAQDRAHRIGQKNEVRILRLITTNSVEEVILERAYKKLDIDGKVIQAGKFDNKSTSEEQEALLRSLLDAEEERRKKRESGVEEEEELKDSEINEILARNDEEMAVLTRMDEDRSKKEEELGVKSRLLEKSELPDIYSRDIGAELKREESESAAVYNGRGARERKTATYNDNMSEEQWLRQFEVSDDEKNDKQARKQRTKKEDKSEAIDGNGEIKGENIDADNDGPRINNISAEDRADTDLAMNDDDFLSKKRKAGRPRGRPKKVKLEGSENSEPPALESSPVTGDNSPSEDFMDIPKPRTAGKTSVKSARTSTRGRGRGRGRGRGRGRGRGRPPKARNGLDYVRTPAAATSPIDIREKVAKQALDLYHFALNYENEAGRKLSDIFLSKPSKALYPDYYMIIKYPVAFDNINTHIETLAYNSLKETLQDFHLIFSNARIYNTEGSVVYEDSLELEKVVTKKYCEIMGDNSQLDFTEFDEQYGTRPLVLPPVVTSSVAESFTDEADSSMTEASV

[2] = target: B2; test: cryo-EM structure

Binder | binding result [1] | binding result [2]
B1 | binds | –
B2 | binds | –
B3 | binds | –
B4 | – | binds
B5 | binds | –

Source: paper PMC7319049 (Nature, 2020)
